Measurements: article PMC3057327 (Methods (San Diego, Calif.), 2011)

B1: htt^NTQ20P10K2 (huntingtin N-terminal fragment peptide) (peptide)
chain: MATLEKLMKAFESLKSFQQQQQQQQQQQQQQQQQQQQPPPPPPPPPPKK
B2: K2Q23K2 (peptide)
chain: KKQQQQQQQQQQQQQQQQQQQQQQQKK

What was measured:
[1] = target: the molecule itself; experiment: aggregates isolated by centrifugation + limited proteolysis
sedimentation assay = target: the molecule itself; experiment: sedimentation assay

Row | Protein | binding result [1] | binding result (sedimentation assay)
1 | B1 | binds | 
2 | B2 |  | binds
